Results from patent US20240254182A1.

Target: design 9 G-CSFR(Ig-CRH)E, tag cleaved (human) (UniProt Q99062)
Experiment: SPR, WT G-CSF against design 9 G-CSFR(Ig-CRH)E; steady state derived affinity constant

“WT G-CSF, purified from insect cells, tag cleaved (from UniProt P09919 31-206) (ligand)” showed a KD fold change (against WT:WT) of 8810 fold.
